According to the supplement of paper PMC9112550, “Optimization of the antimicrobial peptide Bac7 by deep mutational scanning” (BMC Biology, 2022):

The sequences below were run on Escherichia coli TOP10 (assay: shrunken log2 fold change of peptide-encoding DNA abundance (4.5 h post-induction vs induction); higher = less antimicrobial activity (less host growth inhibition)). Conditions: time post-induction: 4.5 h; library: site-saturation at positions 5, 18, 19, 20.
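Note: peptides expressed intracellularly from a pBAD plasmid library in pooled LB shake-flask culture, induced with 0.3% L-arabinose, DNA abundance read by NGS, three biological replicates, DESeq2 with apeglm shrinkage.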

Sequence | shrunken log2 fold change
RRIRCRPPRLPRPRPRPLSAPRP | 0.00383
RRIRGRPPRLPRPRPRPWNLPRP | 0.000264
RRIRYRPPRLPRPRPRPTTTPRP | -0.00235
RRIRRRPPRLPRPRPRPAMMPRP | 0.163
RRIRIRPPRLPRPRPRPALRPRP | 0.00782
RRIRCRPPRLPRPRPRPEFGPRP | 0.241
RRIRERPPRLPRPRPRPGMTPRP | -0.324
RRIRCRPPRLPRPRPRPTPGPRP | 0.589
RRIRGRPPRLPRPRPRPIGEPRP | 0.187
RRIRPRPPRLPRPRPRPWCFPRP | -0.295
RRIRMRPPRLPRPRPRPDRYPRP | -0.0269
RRIRTRPPRLPRPRPRPQGPPRP | 0.0175
RRIRTRPPRLPRPRPRPSDEPRP | -0.516
RRIRKRPPRLPRPRPRPIDEPRP | -0.148
RRIRPRPPRLPRPRPRPICVPRP | -0.215
RRIRRRPPRLPRPRPRPLEYPRP | -0.326
RRIRGRPPRLPRPRPRPHECPRP | 0.504
RRIRYRPPRLPRPRPRPDVMPRP | 0.0199
RRIRIRPPRLPRPRPRPNDMPRP | -1.13
RRIRQRPPRLPRPRPRPRNSPRP | -0.0108
RRIRERPPRLPRPRPRPPQDPRP | 0.113
RRIRCRPPRLPRPRPRPDGLPRP | -0.0371
RRIRHRPPRLPRPRPRPKLYPRP | 0.0366
RRIRCRPPRLPRPRPRPWLEPRP | 0.117
RRIRYRPPRLPRPRPRPWIPPRP | -0.0119

Sequence | shrunken log2 fold change
RRIRHRPPRLPRPRPRPRTFPRP | 0.147
RRIRWRPPRLPRPRPRPNFFPRP | 0.0572
RRIRFRPPRLPRPRPRPHQFPRP | -0.343
RRIRSRPPRLPRPRPRPRNWPRP | 0.318
RRIRQRPPRLPRPRPRPYKNPRP | -1.02
RRIRKRPPRLPRPRPRPGVSPRP | 0.497
RRIRKRPPRLPRPRPRPGMPPRP | 0.625
RRIRGRPPRLPRPRPRPMNYPRP | 0.00834
RRIRGRPPRLPRPRPRPHHMPRP | -0.219
RRIRPRPPRLPRPRPRPPNHPRP | 0.0555
RRIRVRPPRLPRPRPRPGSNPRP | 0.0377
RRIRARPPRLPRPRPRPLALPRP | 0.668
RRIRSRPPRLPRPRPRPIERPRP | -0.23
RRIRNRPPRLPRPRPRPIRAPRP | -0.0265
RRIRSRPPRLPRPRPRPEGSPRP | 0.223
RRIRGRPPRLPRPRPRPHQYPRP | -0.226
RRIRARPPRLPRPRPRPLEAPRP | 1.21
RRIRCRPPRLPRPRPRPYFQPRP | -0.846
RRIRERPPRLPRPRPRPYTRPRP | -0.252
RRIRVRPPRLPRPRPRPLDAPRP | 0.571
RRIRNRPPRLPRPRPRPSCPPRP | -0.4
RRIRQRPPRLPRPRPRPTEHPRP | -0.00172
RRIRNRPPRLPRPRPRPWDFPRP | -0.00226
RRIRCRPPRLPRPRPRPTHYPRP | 0.513
RRIRPRPPRLPRPRPRPQCHPRP | -0.457

Sequence | shrunken log2 fold change
RRIRNRPPRLPRPRPRPQKCPRP | 0.0748
RRIRPRPPRLPRPRPRPKMGPRP | -0.0348
RRIRIRPPRLPRPRPRPSCTPRP | -0.407
RRIRIRPPRLPRPRPRPLYTPRP | -0.723
RRIRVRPPRLPRPRPRPEKCPRP | 0.0903
RRIRIRPPRLPRPRPRPNNYPRP | -0.996
RRIRPRPPRLPRPRPRPGREPRP | 2.45
RRIRTRPPRLPRPRPRPLINPRP | -0.692
RRIRERPPRLPRPRPRPNWIPRP | -0.324
RRIRQRPPRLPRPRPRPKDVPRP | 0.00879
RRIRNRPPRLPRPRPRPSDEPRP | -0.189
RRIRARPPRLPRPRPRPFCSPRP | -0.0878
RRIRRRPPRLPRPRPRPRYWPRP | 0.088
RRIRFRPPRLPRPRPRPIQHPRP | -0.196
RRIRWRPPRLPRPRPRPWGSPRP | 0.0134
RRIRLRPPRLPRPRPRPGCKPRP | -0.0977
RRIRFRPPRLPRPRPRPQFCPRP | -0.0625
RRIRFRPPRLPRPRPRPDNDPRP | -0.188
RRIRYRPPRLPRPRPRPTQWPRP | 0.413
RRIRRRPPRLPRPRPRPKIQPRP | 0.0197
RRIRTRPPRLPRPRPRPWFTPRP | 0.00948
RRIRERPPRLPRPRPRPNTWPRP | 0.0226
RRIRPRPPRLPRPRPRPCDYPRP | 0.218
RRIRFRPPRLPRPRPRPLDAPRP | 0.0999
RRIRSRPPRLPRPRPRPHEVPRP | -0.0564

Sequence | shrunken log2 fold change
RRIRRRPPRLPRPRPRPPWLPRP | 0.634
RRIRRRPPRLPRPRPRPKTGPRP | 0.1
RRIRVRPPRLPRPRPRPCTEPRP | -0.167
RRIRLRPPRLPRPRPRPNAAPRP | -0.0536
RRIRYRPPRLPRPRPRPFNHPRP | -0.732
RRIRTRPPRLPRPRPRPNGPPRP | -0.277
RRIRRRPPRLPRPRPRPTMRPRP | 0.667
RRIRWRPPRLPRPRPRPQSKPRP | -0.0549
RRIRARPPRLPRPRPRPTIDPRP | 0.301
RRIRCRPPRLPRPRPRPNQVPRP | 0.017
RRIRKRPPRLPRPRPRPGCHPRP | 0.0456
RRIRPRPPRLPRPRPRPGWRPRP | 0.438
RRIRVRPPRLPRPRPRPQRRPRP | 0.0241
RRIRRRPPRLPRPRPRPHNHPRP | -0.237
RRIRMRPPRLPRPRPRPKQWPRP | 0.895
RRIRERPPRLPRPRPRPYYEPRP | -0.224
RRIRHRPPRLPRPRPRPSDVPRP | -0.042
RRIRARPPRLPRPRPRPYAIPRP | 2.12
RRIRLRPPRLPRPRPRPQVNPRP | -0.141
RRIRVRPPRLPRPRPRPGVAPRP | 0.377
RRIRMRPPRLPRPRPRPPSVPRP | 0.777
RRIRHRPPRLPRPRPRPPWMPRP | 0.197
RRIRLRPPRLPRPRPRPNQWPRP | -0.117
RRIRGRPPRLPRPRPRPEIKPRP | 1.24
RRIRARPPRLPRPRPRPIWFPRP | 0.225

Sequence | shrunken log2 fold change
RRIRYRPPRLPRPRPRPKDCPRP | -0.494
RRIRSRPPRLPRPRPRPFGMPRP | -0.25
RRIRYRPPRLPRPRPRPHLFPRP | -0.313
RRIRDRPPRLPRPRPRPPINPRP | -0.205
RRIRCRPPRLPRPRPRPPTMPRP | 0.143
RRIRKRPPRLPRPRPRPFKVPRP | -0.0542
RRIRIRPPRLPRPRPRPWMEPRP | -0.172
RRIRLRPPRLPRPRPRPIMHPRP | 0.0628
RRIRYRPPRLPRPRPRPACDPRP | -0.00452
RRIRMRPPRLPRPRPRPARLPRP | 0.201
RRIRSRPPRLPRPRPRPRHHPRP | -0.163
RRIRPRPPRLPRPRPRPFQMPRP | -0.0867
RRIRGRPPRLPRPRPRPGMDPRP | 1.06
RRIRSRPPRLPRPRPRPQETPRP | 0.0728
RRIRNRPPRLPRPRPRPTLQPRP | 0.0909
RRIRLRPPRLPRPRPRPPGCPRP | 0.558
RRIRVRPPRLPRPRPRPFSIPRP | -0.349
RRIRDRPPRLPRPRPRPTGIPRP | 0.26
RRIRCRPPRLPRPRPRPPCPPRP | 0.487
RRIRNRPPRLPRPRPRPNVWPRP | 0.0184
RRIRARPPRLPRPRPRPDWCPRP | 0.0911
RRIRFRPPRLPRPRPRPPDLPRP | -0.329
RRIRVRPPRLPRPRPRPNDSPRP | -0.326
RRIRTRPPRLPRPRPRPGNVPRP | 0.0939
RRIRRRPPRLPRPRPRPNYQPRP | -0.263

Sequence | shrunken log2 fold change
RRIRERPPRLPRPRPRPRMRPRP | 0.506
RRIRCRPPRLPRPRPRPTSKPRP | 0.921
RRIRGRPPRLPRPRPRPMKWPRP | 3.42
RRIRQRPPRLPRPRPRPQYFPRP | -0.00133
RRIRNRPPRLPRPRPRPQWIPRP | -0.446
RRIRDRPPRLPRPRPRPYWAPRP | -0.0312
RRIRRRPPRLPRPRPRPCKRPRP | 0.0349
RRIRWRPPRLPRPRPRPDQIPRP | 0.134
RRIRDRPPRLPRPRPRPYWKPRP | -0.00829
RRIRVRPPRLPRPRPRPDNTPRP | -0.426
RRIRCRPPRLPRPRPRPKESPRP | 0.0858
RRIRHRPPRLPRPRPRPVQYPRP | 0.00489
RRIRIRPPRLPRPRPRPDWVPRP | 0.135
RRIRPRPPRLPRPRPRPEGWPRP | 1.82
RRIRTRPPRLPRPRPRPMKQPRP | -0.0631
RRIRDRPPRLPRPRPRPAAAPRP | 1.35
RRIRWRPPRLPRPRPRPFEGPRP | -0.0062
RRIRIRPPRLPRPRPRPHCNPRP | -0.784
RRIRPRPPRLPRPRPRPYLQPRP | -0.831
RRIRSRPPRLPRPRPRPNGCPRP | -0.0491
RRIRVRPPRLPRPRPRPEPCPRP | -0.0507
RRIRKRPPRLPRPRPRPFKLPRP | 0.0306
RRIRDRPPRLPRPRPRPHHTPRP | -1.13
RRIRMRPPRLPRPRPRPVETPRP | -0.00114
RRIRPRPPRLPRPRPRPIGGPRP | 0.00483
